For one substance, stoichiometry N results are on record in paper doi:10.1101/857730.

The experiment concerns the target Photorhabdus luminescens TcdA1 (TcA subunit of the Tc toxin) (P. luminescens) (UniProt Q9RN43). Nature of the experiment: cryo-EM structure.

One may read the stoichiometry N as a count of units in the complex or per binding partner. In turn, “Photorhabdus luminescens TcdA1 (TcA subunit of the Tc toxin), Q9RN43 1-2516” yielded a stoichiometry N of 5.
